Here are results for 1 molecule from patent US7253271 (REGENTS OF THE UNIVERSITY OF MICHIGAN, dated 2007).

The target of assay [1] is T1, human ClC-Kb chloride channel (human, UniProt P51801 1-687).
T1 construct: whole, on cells; Expressed from cRNA in Xenopus oocytes or from cDNA in tsA201 cells; also called CIC-Kb; CLCNKB
T1 sequence (looked up): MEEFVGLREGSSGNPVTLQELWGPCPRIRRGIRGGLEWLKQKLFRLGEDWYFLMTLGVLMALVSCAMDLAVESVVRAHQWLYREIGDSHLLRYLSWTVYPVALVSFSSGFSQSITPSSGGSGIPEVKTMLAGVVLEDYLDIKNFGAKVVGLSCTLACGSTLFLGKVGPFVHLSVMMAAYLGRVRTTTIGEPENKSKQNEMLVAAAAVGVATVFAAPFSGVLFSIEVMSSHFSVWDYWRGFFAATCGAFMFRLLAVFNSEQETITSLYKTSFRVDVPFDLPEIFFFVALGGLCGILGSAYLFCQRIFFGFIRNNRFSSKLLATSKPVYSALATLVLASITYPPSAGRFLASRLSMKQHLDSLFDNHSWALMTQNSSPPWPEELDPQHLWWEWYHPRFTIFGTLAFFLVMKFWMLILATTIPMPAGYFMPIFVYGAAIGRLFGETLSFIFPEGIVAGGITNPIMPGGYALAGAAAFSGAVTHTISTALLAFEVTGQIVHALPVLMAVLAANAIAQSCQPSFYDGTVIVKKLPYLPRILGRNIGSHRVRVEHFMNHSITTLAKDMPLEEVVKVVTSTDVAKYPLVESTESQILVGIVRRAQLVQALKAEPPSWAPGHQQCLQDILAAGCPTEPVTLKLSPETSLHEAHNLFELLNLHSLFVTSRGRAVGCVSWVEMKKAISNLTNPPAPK
The assay can be described thus: inferred from co-expression (currents, colocalisation); no direct binding assay.

The target of assay [2] is T2, human ClC-Ka chloride channel (human, UniProt P51800 1-687).
T2 construct: whole, on cells; Expressed from cRNA in Xenopus oocytes or from cDNA in tsA201 cells; also called CIC-Ka; CLCNKA
T2 sequence (looked up): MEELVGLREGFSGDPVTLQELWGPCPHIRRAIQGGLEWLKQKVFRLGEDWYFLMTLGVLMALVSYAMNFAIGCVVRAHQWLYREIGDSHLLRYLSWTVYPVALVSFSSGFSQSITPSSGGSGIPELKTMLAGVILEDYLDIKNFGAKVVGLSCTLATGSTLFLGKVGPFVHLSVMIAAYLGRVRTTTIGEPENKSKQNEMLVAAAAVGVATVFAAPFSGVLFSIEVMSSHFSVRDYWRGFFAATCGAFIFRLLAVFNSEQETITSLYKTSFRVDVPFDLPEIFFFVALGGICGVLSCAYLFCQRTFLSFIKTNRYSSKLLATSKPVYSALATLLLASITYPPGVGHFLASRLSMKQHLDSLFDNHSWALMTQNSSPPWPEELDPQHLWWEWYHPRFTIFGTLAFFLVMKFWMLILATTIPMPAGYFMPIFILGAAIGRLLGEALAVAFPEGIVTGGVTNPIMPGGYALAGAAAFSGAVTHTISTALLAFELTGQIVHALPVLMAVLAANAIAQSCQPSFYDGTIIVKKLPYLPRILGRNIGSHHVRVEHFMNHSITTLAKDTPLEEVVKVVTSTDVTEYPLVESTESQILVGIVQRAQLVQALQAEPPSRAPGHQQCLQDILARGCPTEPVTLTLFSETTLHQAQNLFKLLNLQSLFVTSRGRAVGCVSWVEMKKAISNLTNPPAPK
The assay can be described thus: inferred from co-expression (currents, surface expression, colocalisation); no direct binding assay.

B1: barttin (BSND protein), wild type, human (other)
chain: MADEKTFRIGFIVLGLFLLALGTFLMSHDRPQVYGTFYAMGSVMVIGGIIWSMCQCYPKITFVPADSDFQGILSPKAMGLLENGLAAEMKSPSPQPPYVRLWEEAAYDQSLPDFSHIQMKVMSYSEDHRSLLAPEMGQPKLGTSDGGEGGPGDVQAWMEAAVVIHKGSDESEGERRLTQSWPGPLACPQGPAPLASFQDDLDMDSSEGSSPNASPHDREEACSPQQEPQGCRCPLDRFQDFALIDAPTLEDEPQEGQQWEIALPNNWQRYPRTKVEEKEASDTGGEEPEKEEEDLYYGLPDGAGDLLPDKELGFEPDTQG
notes: Expressed in Xenopus oocytes, tsA201 cells or other transfected cells
Consider B1, for which the binding result in assay [1] and in assay [2] was “binds” in each case.
